Reference: patent publication US20250277045A1

Target: human BCMA recombinant antigen (human) (UniProt Q02223)
Experiment: competition ELISA, coated human BCMA, antibody varied, then biotinylated human APRIL at 240 ng/mL, SA-HRP

human BCMA recombinant antigen (human), sequence (Q02223 1-53): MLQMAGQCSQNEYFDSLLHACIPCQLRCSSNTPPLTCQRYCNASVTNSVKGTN

- IC50 (read off the curve): 3 nM
Substance: REGN5458 (bispecific antibody)
